This note sets out measurements from PMC2794166.

In the series the target is T1, mPOT1a_N (mouse, UniProt Q91WC1 1-300).
T1 sequence: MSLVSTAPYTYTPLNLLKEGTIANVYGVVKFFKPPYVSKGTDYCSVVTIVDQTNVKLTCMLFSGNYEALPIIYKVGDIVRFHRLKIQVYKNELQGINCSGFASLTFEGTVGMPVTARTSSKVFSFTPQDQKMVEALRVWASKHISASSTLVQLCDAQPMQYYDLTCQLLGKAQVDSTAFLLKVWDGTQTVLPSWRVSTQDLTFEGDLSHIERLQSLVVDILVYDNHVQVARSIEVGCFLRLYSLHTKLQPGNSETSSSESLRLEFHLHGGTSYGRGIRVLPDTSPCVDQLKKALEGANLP
Kind of series: EMSA. For orientation: Mobility shift assays separate free from complexed probe on a gel.

B1: (TTAGGG)2 (ssDNA)
DNA: TTAGGGTTAGGG
Take B1: the binding result is “no binding”.
